Data reported in patent US20190127452A1.

Columns and labels:
Experiment in all cases: cell-based or functional assay
[1] = molecular target: murine glutamine synthetase N-terminal mutant W60A N61A D63A S66A D76A (mutGS-NT3) (murine) (UniProt P15105)
[2] = molecular target: murine glutamine synthetase N-terminal mutant W60A N61A D63R S66A (mutGS-NT4) (murine) (UniProt P15105)
[3] = molecular target: murine glutamine synthetase N-terminal mutant W60A N61A D63A (mutGS-NT1) (murine) (UniProt P15105)
[4] = molecular target: murine glutamine synthetase N-terminal mutant W60A N61A D63A S66A (mutGS-NT2) (murine) (UniProt P15105)

Measured: recovery of viability of CHO-K1 GS knockout pools in glutamine-free medium

murine glutamine synthetase C-terminal mutant E134A E136A E196A E203A (mutGS-CT1) (from UniProt P15105 1-373)
90 % viability: all assays above

murine glutamine synthetase C-terminal mutant N248A H253A N255A (mutGS-CT2) (from UniProt P15105 1-373)
90 % viability: all assays above
